Experimental data taken from the DeepSol protein solubility set.

test: soluble on expression in E. coli; label from the status in PepcDB or PDB records

Q: For “SALKAEGAALDCFEVTLKCEEGEDEEEAMVVAVIPRPEPMLRVTQQEKTPPPRPSPLEAGSDGCEEPKQQVSWEQEFLVGSSPGGSGRALCMVCGAEIRAPSADTARSHILEQHPHTLDLSPSEKSNILEAWSEGVALLQDVRAEQPSPPNSDSGQDAHPDPDANPDAARMPAEIVVLLDSEDNPSLPKRSRPRGLRPLELPAVPATEPGNKKPRGQRWKEPPGEEPVRKKRGRPMTKNLDPDPEPPSPDSPTETFAAPAEVRHFTDGSFPAGFVLQLFSHTQLRGPDSKDSPKDREVAEGGLPRAESPSPAPPPGLRGTLDLQVIRVRMEEPPAVSLLQDWSRHPQGTKRVGAGDTSDWPTVLSESSTTVAGKPEKGNGV”, which “soluble on expression in E. coli” value is on record?
A: The value was “soluble”.

Q: With “SANTSFLLRKKIFAKLMRITTPSHDHYGSSTLLVRLTNDVYLMEVIAFDFL” as the sequence, how does the “soluble on expression in E. coli” value read?
A: Its value is “not soluble”.

Q: Which “soluble on expression in E. coli” value does the source give for “SASGDFCSPGEGMEILQQVCSKQLPPCNLSKEDLLQNPYFSKLLLNLSQHVDESGLSLTLAKEQAQAWKEVRLHKTTWLRSEILHRVIQELLVDYYVKIQDTNVTSEDKKFHETLEQRLLVTELMRLLGPSQEREIPPLLGLEKADLLELMPLSEDFVWMRARLQQEVEEQLKKKCFTLLCYYDPNSDADSETVKAAKVWKLAEVLVGEQQQCQDAKSQQKEQMLLLEKKSAAYSQVLLRCLTLLQRLLQEHRLKTQSELDRINAQYLEVKCGAMILKLRMEELKILSDTYTVEKVEVHRLIRDRLEGAIHLQEQDMENSRQVLNSYEVLGEEFDRLVKEYTVLKQATENKRWALQEFSKVYR” here?
A: Its value is “not soluble”.

Q: With “SASPSLERPEKGAGKSEFRNQKPKPENQDESELLTVPDGWKEPAFSKEDNPRGLLEESSFATLFPKYRGAYLKECWPLVQKALNEHHVNATLDLIEGSMTVCTTKKTFDPYIIIRARDLIKLLARSVSFEQAVRILQDDVACDIIKIGSLVRNKERFVKRRQRLIGPKGSTLKALELLTNCYIMVQGNTVSAIGPFSGLKEVRKVVLDTMKNIHPIYNIKSLMIKRELAKDSELRSQSWERFLPQFKHKNVNKRKEPKKKTVKKEYTPFPPPQPESQIDKELASGEYFLKANQKKRQKMEAIKAKQAEAISKRQEERNKAFIPPKEKPIVKPKEASTETKIDVASIKEKVKKAKNKKLGALTAEEIALKMEADEKKKKKKK” as the sequence, how does the “soluble on expression in E. coli” value read?
A: The value was “soluble”.

Q: Which “soluble on expression in E. coli” value does the source give for “SCIIFLKFDPRPASKNAYRLILAANRDEVYSRPSKAAEFWGSSSEILSGLDMEEGKEGGSWLGISKRGKLAALTNYLEARQNPDAQGRGFLVSNYLTDNLDSLAYLRKVSSEAHLYNGFNLLTAEFRANEDTLCYYGNKGSSEPIHLKAGIYGLSNSLLETPWRKLQHGKQLFSSVVSKTLPPDGLVQELLHILNNEELNTPDPAQESQGVGYSNAMLRALSAVCVRSPGYGTRTNTVILIDREGNVSFTERTMQNCDITQWSTNSFHFRLQE” here?
A: The value was “soluble”.

Q: For “SDDKPNPEALSDSSERLFSFGVIADVQFADLEDGFNFQGTRRRYYRHSLLHLQGAIEDWNNESSMPCCVLQLGDIIDGYNAQYNASKKSLELVMDMFKRLKVPVHHTWGNHEFYNFSREYLTHSKLNTKFLEDQIVHHPETMPSEDYYAYHFVPFPKFRFILLDAYDLSVLGVDQSSPKYEQCMKILREHNPNTELNSPQGELFL”, which “soluble on expression in E. coli” value is on record?
A: Its value is “soluble”.

Q: With “SDEVYLYSDATTSKIARTVTQKLGFSKASSSGTRLHRGYVEEATLEDKPSQTSHIVFVVHGIGQKMDQGRIIKNTAMMREAARKMEEKHFSNHATHVEFLPVEWRSKLTLDGDTVDSITPDKVRGLRDMLNSSAMDIMYYTSPLYRDELVKGLQQELNRLYSLFCSRNPDFEEKGGKVSIVSHSLGCVITYDIMMGWNPGGLYEQLLQKEEELPDERWMSYEERHLLDELYITKRRLREIEDRLHGLKAPSISQTPALKFKVENFFCMGSPLAVFLALRGIRPGNSGSQDHILPREICNRLLNIFHPTDPVAYRLEPLILKHYSNISPVQIHWYNTSNPLPYEHMKPNFLNPAKEPTSVSDSENIAAIPSPVTSPVLSRRHYGESITNIGKASILGAASIGKGLGGMLFSRFGRSSASQPSEPSKDSLEDDKKPSASPSTTTVATQTLPHSGSGFLDSAYFRLQESFFYLPQLLFPENVMQSKDDSLVELEHRIDFELREGLVESRYWSAVTSHTAYWSSLDVALFLLTFMYKHEHDTEAKPSLGSL” as the sequence, how does the “soluble on expression in E. coli” value read?
A: Its value is “soluble”.

Q: For “SDLPRHIAVLCDGNRRWARSAGYDDVSYGYRMGAAKIAEMLRWCHEAGIELATVYLLSTENLQRDPDELAALIEIITDVVEEICAPANHWSVRTVGDLGLIGEEPARRLRGAVESTPEVASFHVNVAVGYGGRREIVDAVRALLSKELANGATAEELVDAVTVEGISENLYTSGQPDPDLVIRTSGEQRLSGFLLWQSAYSEMWFTEAHWPAFRHVDFLRALRDYSAR”, which “soluble on expression in E. coli” value is on record?
A: Its value is “soluble”.

Q: For “SDLSALRVEEVQNVINAMQKILECPICLELIKEPVSTKCDHIFCKFCMLKLLNQKKGPSQCPLCKNDITKRSLQESTRFSQLVEELLKIICAFQLDTGLEYANSYNFAKK”, which “soluble on expression in E. coli” value is on record?
A: Its value is “soluble”.

Q: Which “soluble on expression in E. coli” value does the source give for “SDTGFADSNNDSSPGEGSKRGNSGIEGPVPMDVELAAAKSKRLSEPFFLKNVLLEKSGDTSDLTALALSVHAVMLESGFVLLDHGSDKFSFSKKLLSVSLRYTLPELITRKDTNTVESVTVRFQNIGPRLVVYGTLGGSCKRVHMTSLDKSRFLPVIDLVVDTLKFEKQGSSSYYREVFMLWRMVKDELVIPLLIGLCDKAGLESPPCLMLLPTELKLKILELLPGVSIGYMACVCTEMRYLASDNDLWEHKCLEEGKGCLWKLYTGDVDWKRKFASFWRRKRLDLLARRNPPIKKSNPRFPTLFPDRRDRREPFDRFGPSDFYRFGLRDPRDRFGPRDPRDPHFYGFRY” here?
A: The value was “soluble”.

Q: With “SDVNECLTIPEACKGEMKCINHYGGYLCLPRSAAVINDLHGEGPPPPVPPAQHPNPCPPGYEPDDQDSCVD” as the sequence, how does the “soluble on expression in E. coli” value read?
A: Its value is “soluble”.

Q: Which “soluble on expression in E. coli” value does the source give for “SDVVEVVGSWWAQEREDIIMKYEKGHRAGLPEDKGPKPFGSYNNNIDHFGMQHETELPPLTAREVKQIRREISRKSKWVKMLGEWDTYKNSRKLIDRAYQGIPMNIRGPMWSVLLNIEEIKLKNPGRYQIMKEKGKRSSEHIQQMDLDVSGTLRRHIFFRDRYGTKQRELLYILLAYEEYNPEVGYCRDLSHIAALFLLYLPEEDAFWALVQLLASERHSLQGFHSPNGGTVQGLQDQQEHVVATSLPKTMWHQDKKDLCGQCSSLGCLIRILIDGISLGLTLRLWDVYLVEGEQAFMLITKSPLRFSRSASRRRPGVARGHVFGTGSLMPGPGMMTLCSSILGPL” here?
A: Its value is “soluble”.

Q: For “SEAMFCDFPKINHGILYDEEKYKPFSQVPTGEVFYYSCEYNFVSPSKSFWTRITCAEEGWSPTPKCLRLCFFPFVENGHSESSGQTHLEGDTVQIICNTGYRLQNNENNISCVERGWSTPPKCRSTISAEKCGPPPPIDNGDITSFLLSVYAPGSSVEYQCQNLYQLEGNNQITCRNGQWSEPPKCLDPCVISQEIMEKYNIKLKWTNQQKLYSRTGDIVEFVCKSGYHPTKSHSFRAMCQNGKLVYPSCEEK”, which “soluble on expression in E. coli” value is on record?
A: Its value is “soluble”.

Q: With “SEEVEAEEPQEFSHRQRLKAAVHYTVGCLCQEVTLNKQVNFSKQTIAAISEVTFRQCENFAKDLEMFARWVEKLAV” as the sequence, how does the “soluble on expression in E. coli” value read?
A: Its value is “soluble”.

Q: For “SEGWAGRVRRHLAGDPARGPTMDVLAAELGVSVRTLRRRLADEGTDYETVVDEIREALAEALLATTTLTVAEVSERLGYSEPSAFARAFRRWKAMSPNEYRRSA”, which “soluble on expression in E. coli” value is on record?
A: Its value is “soluble”.

Q: With “SEKRFKVYVYEEGEPPLVHDGPCKSVYAVEGRFITEMEKRRTKFRTYDPNQAYVYFLPFSVTWLVRYLYEGNSDAKPLKTFVSDYIRLVSTNHPFWNRTNGADHFMLTCHDWGPLTSQANRDLFNTSIRVMCNANSSEGFNPTKDVTLPEIKLYGGEVDHKLRLSKTLSASPRPYLGFFAGGVHGPVRPILLKHWKQRDLDMPVYEYLPKHLNYYDFMRSSKFCFCPSGYEVASPRVIEAIYSECIPVILSVNFVLPFTDVLRWETFSVLVDVSEIPRLKEILMSISNEKYEWLKSNLRYVRRHFELNDPPQRFDAFHLTLHSIWLRRLNLKLT” as the sequence, how does the “soluble on expression in E. coli” value read?
A: The value was “soluble”.

Q: For “SELSQLLNEIRANYEKILTRNQIETVLSTRIQLEEDISKKMDKDEEALKAAQAELKEARRQWHHLQVEIESLHAVERGLENSLHASEQHYQMQLQDLETVIEGLEKELQEVRRGIEKQLQEHEMLLNTKMRLEQEIATYRHLLEKEEIRYYGCIQGGKKDKKPTTSRVGFVLPSAIINEISFTTKVPQKYENENVETVTKQAILNGSIVKESTEAHGTIQTEKVDEVIKEWEGSFFKDNPRLRKKSVSLRFDLHLAATDEGCLETKQDNLPDIEVRLIMRRSCSIPSIKPPSTAN”, which “soluble on expression in E. coli” value is on record?
A: The value was “soluble”.

Q: For “SENLTMNIDSTKTIQGTILPVLDFKTEKENVFTFKNTANLNLLIKHGQVINLINKLEFSTYGNKVTVSGGYVHTEYRYLLHHVFEVYPYVESQWAESRGMKYKVSTGLQSRYR”, which “soluble on expression in E. coli” value is on record?
A: The value was “not soluble”.

Q: Which “soluble on expression in E. coli” value does the source give for “SESQTLDKVYQMKSKPRGYCLIINNHNFAKAREKVPKLHSIRDRNGTHLDAGALTTTFEELHFEIKPHDDCTVEQIYEILKIYQLMDHSNMDCFICCILSHGDKGIIYGTDGQEAPIYELTSQFTGLKCPSLAGKPKVFFIQACQGDNYQKGIPVETASEEQPYLEMALSSPQTRYIPDEADFLLGMATVNNCVSYRNPAEGTWYIQSLCQSLRERCPRGDDILTILTEVNYEVSNKDDKKNMGKQMPQPTFTLRKKLVFPSDVEHHHHHH” here?
A: The value was “soluble”.

Q: Which “soluble on expression in E. coli” value does the source give for “SFNTYQHLLPETVRHLPDVKKQLAMVRPGLSMLSIFICLKGTKEDLKLQSTNYYVYFDTDMDKAMERYVSMPKEKAPEHIPLLFIAFPSSKDPTWEERFPDRSTMTALVPMAFEWFEEWQEEPKGKRGVDYETLKNAFVEASMSVIMKLFPQLEGKVESVTGGSPLTNQYYLAAPRGATYGADHDLARLHPHAMASIRAQTPIPNLYLTGQDIFTCGLMGALQGALLCSSAILKRNLYSDLQALGSKVKAQKKKM” here?
A: Its value is “soluble”.

Q: Which “soluble on expression in E. coli” value does the source give for “SFRKGKKRHSSSSSQSSEISTKSKSVDSSLGGLSRSSTVASLDTDSTKSSGQSNNNSDTCAEFRIKYVGAIEKLKLSEGKGLEGPLDLINYIDVAQQDGKLPFVPPEEEFIMGVSKYGIKVSTSDQYDVLHRHALYLIIRMVCYDDGLGVGKSLLALKTTDASNEEYSLWVYQCNSLEQAQAICKVLSTAFDSVLTSEKP” here?
A: Its value is “soluble”.

Q: For “SFTSQQWKHLSNDFLKTQQEKRHSWFKASGTIKKFRAGLSIFSPIPKSPSFPIIQDSMLKGKLGVPELRVGRLMNRSISCTMKNPKVEVFGYPPSPQVSGHCKNIPTLEYGFLVQIMKYAEQRIPTLNEYCVVCDEQHVFQNGSMLKPAVCTRELCVFSFYTLGVMSGAAEEVATGAEVVDLLVAMCRAALESPRKSIIFEPYPSVVDPTDPKTLAFNPKKKNYERLQKALDSVMSIREMTQGSYLEIKKQMDKLDPLAHPLLQWIISSNRSHIVKLPLSRLKFMHTSHQFLLLSSPPAKEARFRTAKKLYGSTFAFHGSHIENWHSILRNGLVNASYTKLQEWEKDSTGCPPRMSWSRDTTG”, which “soluble on expression in E. coli” value is on record?
A: Its value is “soluble”.

Q: Which “soluble on expression in E. coli” value does the source give for “SGCGGSRADAIEPRYYESWTRETESTWLTYTDSDAPPSAAAPDSGPEAGGLHSGMLEDGLPSNGVPRSTAPGGIPNPEKKTNCETQCPNPQSLSSGPLTQKQNGLQTTEAKRDAKRMPAKEVTINVTDSIQQMDRSRRITKNCVN” here?
A: The value was “soluble”.

Q: For “SGILFMSKVGLRGDRRSEGDEVLDPLRQALDSSMQSHNLYQHPQHLAFHVSAPVASTVQQASGLLGPLPHLSSFALQPAHSLLPPLGSHGAGFQENGAKAES”, which “soluble on expression in E. coli” value is on record?
A: The value was “soluble”.

Q: For “SGRFSIKAKNYFLTYPKCDLTKENALSQITNLQTPTNKLFIKICRELHENGEPHLHILIQFEGKYNCTNQRFFDLVSPTRSAHFHPNIQGAKSSSDVKSYIDKDGDVLEWGTFQIDGR”, which “soluble on expression in E. coli” value is on record?
A: Its value is “soluble”.

Q: For “SHMQLKFAECLEKKVDMSKVNLEVIKPWITKRVTEILGFEDDVVIEFIFNQLEVKNPDSKMMQINLTGFLNGKNAREFMGELWPLLLSAQENIAGIPSAFLELKKEEIKQR”, which “soluble on expression in E. coli” value is on record?
A: Its value is “soluble”.
